Measured values as given in patent US20260015399A1 (Boehringer Ingelheim, published 2026).
*1 amine or outer side, *2 acyl side, *3 side chain or, on linkers, in order; H or OH if unused. Side-chain parts run from the residue outwards. The star is where a group is joined. C18 diacid = O=C(O)CCCCCCCCCCCCCCCCC(=O)*; γGlu = O=C(O)[C@H](CCC(=O)[*:2])N[*:1]; Isovaleryl = CC(C)CC(=O)*; Ahx = NCCCCCC(=O)O

T1: human NPY2 receptor (human, UniProt P49146 1-381)
T1 construct: whole, on cells; also called hNPY2-R; hNPY2R
T1 sequence (looked up): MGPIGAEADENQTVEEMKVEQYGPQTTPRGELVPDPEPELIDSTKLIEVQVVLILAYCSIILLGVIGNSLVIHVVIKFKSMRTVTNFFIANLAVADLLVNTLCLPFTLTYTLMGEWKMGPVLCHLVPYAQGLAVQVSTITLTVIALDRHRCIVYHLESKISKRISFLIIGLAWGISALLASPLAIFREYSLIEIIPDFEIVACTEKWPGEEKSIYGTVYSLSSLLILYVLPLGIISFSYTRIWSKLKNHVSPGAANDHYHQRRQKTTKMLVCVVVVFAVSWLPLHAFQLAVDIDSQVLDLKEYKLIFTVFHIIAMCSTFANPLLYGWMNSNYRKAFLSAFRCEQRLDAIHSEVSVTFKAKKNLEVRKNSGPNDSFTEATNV


target: T1, human NPY2 receptor; assay: RLB: displacement of 125I-PYY(1-36) from hNPY2R membranes

Row | Binder | Ki [nM]
1 | Isovaleryl-APEK([Ahx-γGlu-C18 diacid])PEEDSTPEELQRYYVSLRHYYNWLTRQRY-NH2 (SMILES CC(C)CC(=O)N[C@@H](C)C(=O)N1CCC[C@H]1C(=O)N[C@@H](CCC(=O)O)C(=O)N[C@@H](CCCCNC(=O)CCCCCNC(=O)CC[C@H](NC(=O)CCCCCCCCCCCCCCCCC(=O)O)C(=O)O)C(=O)N1CCC[C@H]1C(=O)N[C@@H](CCC(=O)O)C(=O)N[C@@H](CCC(=O)O)C(=O)N[C@@H](CC(=O)O)C(=O)N[C@@H](CO)C(=O)N[C@H](C(=O)N1CCC[C@H]1C(=O)N[C@@H](CCC(=O)O)C(=O)N[C@@H](CCC(=O)O)C(=O)N[C@@H](CC(C)C)C(=O)N[C@@H](CCC(N)=O)C(=O)N[C@@H](CCCNC(=N)N)C(=O)N[C@@H](Cc1ccc(O)cc1)C(=O)N[C@@H](Cc1ccc(O)cc1)C(=O)N[C@H](C(=O)N[C@@H](CO)C(=O)N[C@@H](CC(C)C)C(=O)N[C@@H](CCCNC(=N)N)C(=O)N[C@@H](Cc1c[nH]cn1)C(=O)N[C@@H](Cc1ccc(O)cc1)C(=O)N[C@@H](Cc1ccc(O)cc1)C(=O)N[C@@H](CC(N)=O)C(=O)N[C@@H](Cc1c[nH]c2ccccc12)C(=O)N[C@@H](CC(C)C)C(=O)N[C@H](C(=O)N[C@@H](CCCNC(=N)N)C(=O)N[C@@H](CCC(N)=O)C(=O)N[C@@H](CCCNC(=N)N)C(=O)N[C@@H](Cc1ccc(O)cc1)C(N)=O)[C@@H](C)O)C(C)C)[C@@H](C)O) [Compound 143] | 3.42
2 | Isovaleryl-APEK([Ahx-γGlu-C18 diacid])PEEDQTPEELQRYYVSLRHYYNWLTRQRY-NH2 (SMILES CC(C)CC(=O)N[C@@H](C)C(=O)N1CCC[C@H]1C(=O)N[C@@H](CCC(=O)O)C(=O)N[C@@H](CCCCNC(=O)CCCCCNC(=O)CC[C@H](NC(=O)CCCCCCCCCCCCCCCCC(=O)O)C(=O)O)C(=O)N1CCC[C@H]1C(=O)N[C@@H](CCC(=O)O)C(=O)N[C@@H](CCC(=O)O)C(=O)N[C@@H](CC(=O)O)C(=O)N[C@@H](CCC(N)=O)C(=O)N[C@H](C(=O)N1CCC[C@H]1C(=O)N[C@@H](CCC(=O)O)C(=O)N[C@@H](CCC(=O)O)C(=O)N[C@@H](CC(C)C)C(=O)N[C@@H](CCC(N)=O)C(=O)N[C@@H](CCCNC(=N)N)C(=O)N[C@@H](Cc1ccc(O)cc1)C(=O)N[C@@H](Cc1ccc(O)cc1)C(=O)N[C@H](C(=O)N[C@@H](CO)C(=O)N[C@@H](CC(C)C)C(=O)N[C@@H](CCCNC(=N)N)C(=O)N[C@@H](Cc1c[nH]cn1)C(=O)N[C@@H](Cc1ccc(O)cc1)C(=O)N[C@@H](Cc1ccc(O)cc1)C(=O)N[C@@H](CC(N)=O)C(=O)N[C@@H](Cc1c[nH]c2ccccc12)C(=O)N[C@@H](CC(C)C)C(=O)N[C@H](C(=O)N[C@@H](CCCNC(=N)N)C(=O)N[C@@H](CCC(N)=O)C(=O)N[C@@H](CCCNC(=N)N)C(=O)N[C@@H](Cc1ccc(O)cc1)C(N)=O)[C@@H](C)O)C(C)C)[C@@H](C)O) [Compound 144] | 9.76
3 | Isovaleryl-APEK([Ahx-γGlu-C18 diacid])PEEDATPEELQRYYVTLRHYYNWLTRQRY-NH2 (SMILES CC(C)CC(=O)N[C@@H](C)C(=O)N1CCC[C@H]1C(=O)N[C@@H](CCC(=O)O)C(=O)N[C@@H](CCCCNC(=O)CCCCCNC(=O)CC[C@H](NC(=O)CCCCCCCCCCCCCCCCC(=O)O)C(=O)O)C(=O)N1CCC[C@H]1C(=O)N[C@@H](CCC(=O)O)C(=O)N[C@@H](CCC(=O)O)C(=O)N[C@@H](CC(=O)O)C(=O)N[C@@H](C)C(=O)N[C@H](C(=O)N1CCC[C@H]1C(=O)N[C@@H](CCC(=O)O)C(=O)N[C@@H](CCC(=O)O)C(=O)N[C@@H](CC(C)C)C(=O)N[C@@H](CCC(N)=O)C(=O)N[C@@H](CCCNC(=N)N)C(=O)N[C@@H](Cc1ccc(O)cc1)C(=O)N[C@@H](Cc1ccc(O)cc1)C(=O)N[C@H](C(=O)N[C@H](C(=O)N[C@@H](CC(C)C)C(=O)N[C@@H](CCCNC(=N)N)C(=O)N[C@@H](Cc1c[nH]cn1)C(=O)N[C@@H](Cc1ccc(O)cc1)C(=O)N[C@@H](Cc1ccc(O)cc1)C(=O)N[C@@H](CC(N)=O)C(=O)N[C@@H](Cc1c[nH]c2ccccc12)C(=O)N[C@@H](CC(C)C)C(=O)N[C@H](C(=O)N[C@@H](CCCNC(=N)N)C(=O)N[C@@H](CCC(N)=O)C(=O)N[C@@H](CCCNC(=N)N)C(=O)N[C@@H](Cc1ccc(O)cc1)C(N)=O)[C@@H](C)O)[C@@H](C)O)C(C)C)[C@@H](C)O) [Compound 148] | 2.85

The remaining lines, values ahead:

Row | Ki [nM] | Binder
4 | 8.17 | Isovaleryl-APEK([Ahx-γGlu-C18 diacid])PEEDATPEELQSYYVSLRHYYNWLTRQRY-NH2 (SMILES CC(C)CC(=O)N[C@@H](C)C(=O)N1CCC[C@H]1C(=O)N[C@@H](CCC(=O)O)C(=O)N[C@@H](CCCCNC(=O)CCCCCNC(=O)CC[C@H](NC(=O)CCCCCCCCCCCCCCCCC(=O)O)C(=O)O)C(=O)N1CCC[C@H]1C(=O)N[C@@H](CCC(=O)O)C(=O)N[C@@H](CCC(=O)O)C(=O)N[C@@H](CC(=O)O)C(=O)N[C@@H](C)C(=O)N[C@H](C(=O)N1CCC[C@H]1C(=O)N[C@@H](CCC(=O)O)C(=O)N[C@@H](CCC(=O)O)C(=O)N[C@@H](CC(C)C)C(=O)N[C@@H](CCC(N)=O)C(=O)N[C@@H](CO)C(=O)N[C@@H](Cc1ccc(O)cc1)C(=O)N[C@@H](Cc1ccc(O)cc1)C(=O)N[C@H](C(=O)N[C@@H](CO)C(=O)N[C@@H](CC(C)C)C(=O)N[C@@H](CCCNC(=N)N)C(=O)N[C@@H](Cc1c[nH]cn1)C(=O)N[C@@H](Cc1ccc(O)cc1)C(=O)N[C@@H](Cc1ccc(O)cc1)C(=O)N[C@@H](CC(N)=O)C(=O)N[C@@H](Cc1c[nH]c2ccccc12)C(=O)N[C@@H](CC(C)C)C(=O)N[C@H](C(=O)N[C@@H](CCCNC(=N)N)C(=O)N[C@@H](CCC(N)=O)C(=O)N[C@@H](CCCNC(=N)N)C(=O)N[C@@H](Cc1ccc(O)cc1)C(N)=O)[C@@H](C)O)C(C)C)[C@@H](C)O) [Compound 141]
5 | 3.97 | Isovaleryl-APEK([Ahx-γGlu-C18 diacid])PEEDALPEEIQRYYVSLRHYYNWLTRQRY-NH2 (SMILES CC[C@H](C)[C@H](NC(=O)[C@H](CCC(=O)O)NC(=O)[C@H](CCC(=O)O)NC(=O)[C@@H]1CCCN1C(=O)[C@H](CC(C)C)NC(=O)[C@H](C)NC(=O)[C@H](CC(=O)O)NC(=O)[C@H](CCC(=O)O)NC(=O)[C@H](CCC(=O)O)NC(=O)[C@@H]1CCCN1C(=O)[C@H](CCCCNC(=O)CCCCCNC(=O)CC[C@H](NC(=O)CCCCCCCCCCCCCCCCC(=O)O)C(=O)O)NC(=O)[C@H](CCC(=O)O)NC(=O)[C@@H]1CCCN1C(=O)[C@H](C)NC(=O)CC(C)C)C(=O)N[C@@H](CCC(N)=O)C(=O)N[C@@H](CCCNC(=N)N)C(=O)N[C@@H](Cc1ccc(O)cc1)C(=O)N[C@@H](Cc1ccc(O)cc1)C(=O)N[C@H](C(=O)N[C@@H](CO)C(=O)N[C@@H](CC(C)C)C(=O)N[C@@H](CCCNC(=N)N)C(=O)N[C@@H](Cc1c[nH]cn1)C(=O)N[C@@H](Cc1ccc(O)cc1)C(=O)N[C@@H](Cc1ccc(O)cc1)C(=O)N[C@@H](CC(N)=O)C(=O)N[C@@H](Cc1c[nH]c2ccccc12)C(=O)N[C@@H](CC(C)C)C(=O)N[C@H](C(=O)N[C@@H](CCCNC(=N)N)C(=O)N[C@@H](CCC(N)=O)C(=O)N[C@@H](CCCNC(=N)N)C(=O)N[C@@H](Cc1ccc(O)cc1)C(N)=O)[C@@H](C)O)C(C)C) [Compound 142]
6 | 3.97 | Isovaleryl-APAK([Ahx-γGlu-C18 diacid])PEEDASPEESQRYYVSLRHYYNWLTRQRY-NH2 (SMILES CC(C)CC(=O)N[C@@H](C)C(=O)N1CCC[C@H]1C(=O)N[C@@H](C)C(=O)N[C@@H](CCCCNC(=O)CCCCCNC(=O)CC[C@H](NC(=O)CCCCCCCCCCCCCCCCC(=O)O)C(=O)O)C(=O)N1CCC[C@H]1C(=O)N[C@@H](CCC(=O)O)C(=O)N[C@@H](CCC(=O)O)C(=O)N[C@@H](CC(=O)O)C(=O)N[C@@H](C)C(=O)N[C@@H](CO)C(=O)N1CCC[C@H]1C(=O)N[C@@H](CCC(=O)O)C(=O)N[C@@H](CCC(=O)O)C(=O)N[C@@H](CO)C(=O)N[C@@H](CCC(N)=O)C(=O)N[C@@H](CCCNC(=N)N)C(=O)N[C@@H](Cc1ccc(O)cc1)C(=O)N[C@@H](Cc1ccc(O)cc1)C(=O)N[C@H](C(=O)N[C@@H](CO)C(=O)N[C@@H](CC(C)C)C(=O)N[C@@H](CCCNC(=N)N)C(=O)N[C@@H](Cc1c[nH]cn1)C(=O)N[C@@H](Cc1ccc(O)cc1)C(=O)N[C@@H](Cc1ccc(O)cc1)C(=O)N[C@@H](CC(N)=O)C(=O)N[C@@H](Cc1c[nH]c2ccccc12)C(=O)N[C@@H](CC(C)C)C(=O)N[C@H](C(=O)N[C@@H](CCCNC(=N)N)C(=O)N[C@@H](CCC(N)=O)C(=O)N[C@@H](CCCNC(=N)N)C(=O)N[C@@H](Cc1ccc(O)cc1)C(N)=O)[C@@H](C)O)C(C)C) [Compound 149]
